The experiment has as its target T1, Gonadotropin Releasing Hormone (GnRH) peptide (mammalian (same amino acid sequence in …, N-terminal pyroglutamic acid (pGlu))); C-terminal amide (GlyNH2)).
T1 construct: GnRH peptide bought from Peptides International; also called LHRH; Luteinizing Hormone Releasing Hormone
T1 peptide: EHWSYGLRPG
Briefly: competition ELISA (Friguet method): supernatant pre-incubated overnight with free GnRH peptide, then GnRH-coated plate; nonlinear regression. The method, then: Supernatant was harvested […] after transfection and passed through a 0.2 μm syringe filter (Corning, Corning, N.Y.). Filtered supernatant was evaluated for total antibody expression and GnRH binding activity using protein A and GnRH ELISAs, respectively. Polystyrene ELISA plates (Corning) were coated overnight at room temperature with protein A (5 μg/mL, Sigma Aldrich, St Louis, Mo.) or GnRH peptide (1 μg/mL, Peptides International, Louisville, Ky.) in phosphate buffered saline. Plates were washed five times with PBS containing 0.05% tween 20 (Sigma), then blocked for one hour at room temperature with 1% bovine serum albumin in PBS. Filtered supernatant serially diluted two-fold in PBS was incubated in blocked wells for one hour. Plates were washed five times, then incubated for one hour with a biotinylated goat anti-human IgG1 antibody (Jackson ImmunoResearch, West Grove, Pa.) diluted 1:10,000 in blocking solution. Plates were then washed, incubated with streptavidin-HRP (Abcam, Cambridge, Mass.) diluted 1:30,000 in blocking solution for one hour, washed again, and developed with TMB substrate (Sigma). The reaction was stopped after 20 minutes by the addition of 2 N sulfuric acid. Absorbance was measured at […], with a reading at 540 nm subtracted as background. […] The fraction of antibody binding sites occupied by GnRH was calculated using the method of Stevens, 1987. […]
For orientation: In an ELISA, binding on a coated surface is turned into a signal by an enzyme label.

B1: chimeric anti-GnRH antibody (murine variable regions of hybridoma USASK/DSIL-LHRH-A1, ATCC HB-9094, fused with human IgG1 heavy chain and kappa light chain … (antibody, V domains shown)
VH: QIQLVQSGPELKKPGETVKISCKASGYPFTNYGMNWVKQAPGKGLKWMGWINTYTGEPACADDFRGRFAISLETSARTAYLQINNLINEDTATYFCARTGGGRYNYGMDYWGQGTSVTVSS
VL: QIVLTQSPAIMSASPGEKVTITCSATSSVSYIHWFQQKPGTSPKLWIYSTSNLASGVPVRFSGSGSGTSYSLTISRMEAEDAATYYCQQRSSYPPTFGGGTKLEIKR
notes: Full-length chimeric heavy and light chains: murine variable regions on human IgG1 and human kappa constant domains; Tested as filtered supernatant of transiently transfected 293 HEK cells; also called chimeric GnRH antibody; chimeric antibody
As usually defined, the Kd is the equilibrium constant for the complex coming apart. Higher therefore signals lower affinity. B1 registered a Kd of 3.9 nM.

The record behind these values is patent US20150230430A1 (University of Pennsylvania, published 2015).
